Results as given in publication PMC8893199, “A Cysteine Variant at an Allosteric Site Alters MIF Dynamics and Biological Function in Homo- and Heterotrimeric Assemblies” (Frontiers in Molecular Biosciences, 2022).

Molecular target: the molecule itself
Test: AUC; sedimentation velocity, Y99C MIF homotrimer at three loading concentrations, PBS, 20°C, 50,000 rpm, c(s) analysis in SEDFIT

B1: Y99C MIF homotrimer (natural protein, human, UniProt P14174 1-115, looked up)
chain: MPMFIVNTNVPRASVPDGFLSELTQQLAQATGKPPQYIAVHVVPDQLMAFGGSSEPCALCSLHSIGKIGGAQNRSYSKLLCGLLAERLRISPDRVYINYCDMNAANVGWNNSTFA
notes: untagged; Made by site-directed mutagenesis of the WT MIF cDNA in pET-11b (construct from Pantouris et al., 2018); also called Y99C variant; homotrimeric Y99C MIF; source: E. coli BL21-Gold (DE3), pET-11b, purified (Q-Sepharose and SP flow-through, Superdex 75)
With B1 the “stoichiometry N” value was 3.
